{
  "source": "paper PMC12381156",
  "molecular_target": "G protein-coupled bile acid receptor 1 (GPBAR1), full-length human, with N-terminal FLAG and BRIL (human) (UniProt Q8TDU6)",
  "sequence (Q8TDU6 whole entry)": "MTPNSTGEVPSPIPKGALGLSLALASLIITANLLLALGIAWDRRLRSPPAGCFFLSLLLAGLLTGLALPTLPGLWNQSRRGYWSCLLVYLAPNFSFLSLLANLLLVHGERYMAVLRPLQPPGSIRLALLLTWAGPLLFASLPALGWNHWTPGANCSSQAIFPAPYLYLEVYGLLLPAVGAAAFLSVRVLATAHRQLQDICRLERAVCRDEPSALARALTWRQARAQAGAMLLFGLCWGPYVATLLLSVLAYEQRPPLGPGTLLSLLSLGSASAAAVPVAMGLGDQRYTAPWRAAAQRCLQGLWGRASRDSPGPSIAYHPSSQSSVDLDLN",
  "test": "mass photometry; samples in 20 mM HEPES, 150 mM NaCl, 0.02%/0.002% LMNG/CHS, drop-diluted in PBS to 10 nM (apo-GPBAR1) and 30 nM (GPBAR1/Gs complex with P395 and Nb35); room temperature (18 °C)",
  "data": [
    {"substance": "Gs heterotrimer (Gαs, Gβ1, Gγ2) (from UniProt P63096 1-18; P63092 16-394; P62873 2-340; P59768 1-71) (complex)", "values": [
      {"measurement": "stoichiometry N", "result": 1}
    ]}
  ]
}
